Data from patent US20240240234.

Experiments:
[1] = test system: EcoGII adenine methyltransferase; conditions: methylation efficiency by DpnII protection; SAM; 0.1% BSA improves
[2] = test system: Hia5 adenine methyltransferase; conditions: methylation efficiency by DpnII protection; SAM; 0.1% BSA improves
[3] = test system: LMNB1 (Lamin B1) (Homo sapiens); conditions: DiMeLo-seq pA-Hia5 in situ, signal:background mA ratio (IgG control 1.6)

90-bp duplex with single GATC gave an activity [1] of 100% and an activity [2] of 100%.
For “constitutive lamina-associated domains (cLADs)”, the binding signal [3] was 34.3.
